Experimental data taken from patent publication US20100260765A1 (AstraZeneca / MedImmune, published 2010).

Legend:
[1] = target: T1, human KDR (VEGFR2) on cells (human, UniProt P35968 20-1356); assay: cell-based or functional assay
[2] = target: T1, human KDR (VEGFR2) on cells; assay: cell-based or functional assay; remark: listed apart in the source
[3] = target: T1, human KDR (VEGFR2) on cells; assay: cell-based or functional assay; remark: listed apart in the source
[4] = target: T1, human KDR (VEGFR2) on cells; assay: FACS on HUVEC, hybridoma supernatant 1:50
In short: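 HUVECs incubated 1 h at 4° C with hybridoma supernatant at 1:50, then Cy5 goat anti-human antibody (5 μg/mL) plus 7AAD (5 μg/mL) for 15 min at 4° C. Cell-surface binding read by FACS; goat anti-KDR antibody as positive control, irrelevant hybridoma supernatants as negative controls.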

[5] = target: T2, mouse KDR (Flk-1)/Fc (Cat. #443-KD/CF, R&D Systems) (mouse, UniProt P35918 20-762); assay: ELISA, plate-coated Flk-1/Fc 500 ng/mL, hybridoma supernatant 1:5
T2 construct: Bought reagent; also called mouse VEGFR2; KDR mouse ortholog; Fc part of the bought chimera not given

[6] = target: T3, soluble KDR (VEGF Receptor 2 D1-7, Cat. #676490, Calbiochem) (human, UniProt P35968 20-764); assay: ELISA, plate-coated soluble KDR 250 ng/mL, hybridoma supernatant 1:5
T3 construct: extracellular domain; Bought reagent; also called soluble human KDR; immobilized soluble KDR
Protocol: To screen by binding to immobilized soluble KDR, plates were coated with KDR (Calbiochem) at 250 ng/mL overnight at 4° C. After blocking and washing the coated plates, the candidate hybridoma supernatants (at 1:5 dilution) were transferred to the plates and incubated for one hour at room temperature. The plates were then washed and incubated with secondary antibody (at 1:4000 dilution) for one hour at room temperature.

[7] = target: T4, b-KDRIg4-7-myc-his (UniProt P35968 328-764, prefix 'b-' not explained; captured on neutravidin-coated plates (presumably biotinylated, site not stated)); assay: ELISA, b-KDRIg4-7-myc-his 1 ug/mL on neutravidin, hybridoma supernatant 1:5
T4 construct: domain: Ig4-7; The text calls it 'a KDR antibody containing the Ig4-7 domain'; it is read as the KDR fragment; Purified on a nickel column; also called Ig4-7 domain of KDR; soluble KDR Ig4-7; not shown: myc-his tag of the pSecTag vector
Protocol: To screen by binding to the Ig4-7 domain of KDR, plates were first coated with neutravadin (Pierce) at 4 μg/mL and incubated overnight at 4° C. The plates were then blocked and subsequently incubated with b-KDRIg4-7-myc-his at 1 μg/mL for one hour at room temperature. Candidate hybridoma supernatants (at 1:5 dilution) were transferred to the plates and incubated for one hour at room temperature. The plates were then washed and incubated with goat anti-human IgG Fc POD (at 1:4000 dilution) for one hour at room temperature.

T2 sequence (P35918 20-762): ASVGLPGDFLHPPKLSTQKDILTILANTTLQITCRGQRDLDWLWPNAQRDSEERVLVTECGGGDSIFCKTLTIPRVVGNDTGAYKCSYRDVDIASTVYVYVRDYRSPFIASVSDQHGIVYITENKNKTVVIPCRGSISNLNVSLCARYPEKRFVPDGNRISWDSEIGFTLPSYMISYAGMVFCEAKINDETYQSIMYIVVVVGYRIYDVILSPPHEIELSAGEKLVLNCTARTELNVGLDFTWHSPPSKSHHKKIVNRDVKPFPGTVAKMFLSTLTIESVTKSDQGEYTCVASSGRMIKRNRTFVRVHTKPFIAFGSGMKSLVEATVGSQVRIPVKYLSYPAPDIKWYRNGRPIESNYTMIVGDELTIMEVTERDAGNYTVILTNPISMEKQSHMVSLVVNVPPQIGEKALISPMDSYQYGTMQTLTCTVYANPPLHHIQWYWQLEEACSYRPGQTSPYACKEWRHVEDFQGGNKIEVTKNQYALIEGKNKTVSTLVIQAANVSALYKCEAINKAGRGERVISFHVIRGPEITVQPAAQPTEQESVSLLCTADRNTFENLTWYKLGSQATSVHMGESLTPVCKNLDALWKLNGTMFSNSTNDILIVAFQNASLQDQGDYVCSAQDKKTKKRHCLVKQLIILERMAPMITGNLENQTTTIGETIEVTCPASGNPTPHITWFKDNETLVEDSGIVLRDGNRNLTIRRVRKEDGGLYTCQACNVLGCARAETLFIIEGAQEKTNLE
T1 sequence (P35968 20-1356): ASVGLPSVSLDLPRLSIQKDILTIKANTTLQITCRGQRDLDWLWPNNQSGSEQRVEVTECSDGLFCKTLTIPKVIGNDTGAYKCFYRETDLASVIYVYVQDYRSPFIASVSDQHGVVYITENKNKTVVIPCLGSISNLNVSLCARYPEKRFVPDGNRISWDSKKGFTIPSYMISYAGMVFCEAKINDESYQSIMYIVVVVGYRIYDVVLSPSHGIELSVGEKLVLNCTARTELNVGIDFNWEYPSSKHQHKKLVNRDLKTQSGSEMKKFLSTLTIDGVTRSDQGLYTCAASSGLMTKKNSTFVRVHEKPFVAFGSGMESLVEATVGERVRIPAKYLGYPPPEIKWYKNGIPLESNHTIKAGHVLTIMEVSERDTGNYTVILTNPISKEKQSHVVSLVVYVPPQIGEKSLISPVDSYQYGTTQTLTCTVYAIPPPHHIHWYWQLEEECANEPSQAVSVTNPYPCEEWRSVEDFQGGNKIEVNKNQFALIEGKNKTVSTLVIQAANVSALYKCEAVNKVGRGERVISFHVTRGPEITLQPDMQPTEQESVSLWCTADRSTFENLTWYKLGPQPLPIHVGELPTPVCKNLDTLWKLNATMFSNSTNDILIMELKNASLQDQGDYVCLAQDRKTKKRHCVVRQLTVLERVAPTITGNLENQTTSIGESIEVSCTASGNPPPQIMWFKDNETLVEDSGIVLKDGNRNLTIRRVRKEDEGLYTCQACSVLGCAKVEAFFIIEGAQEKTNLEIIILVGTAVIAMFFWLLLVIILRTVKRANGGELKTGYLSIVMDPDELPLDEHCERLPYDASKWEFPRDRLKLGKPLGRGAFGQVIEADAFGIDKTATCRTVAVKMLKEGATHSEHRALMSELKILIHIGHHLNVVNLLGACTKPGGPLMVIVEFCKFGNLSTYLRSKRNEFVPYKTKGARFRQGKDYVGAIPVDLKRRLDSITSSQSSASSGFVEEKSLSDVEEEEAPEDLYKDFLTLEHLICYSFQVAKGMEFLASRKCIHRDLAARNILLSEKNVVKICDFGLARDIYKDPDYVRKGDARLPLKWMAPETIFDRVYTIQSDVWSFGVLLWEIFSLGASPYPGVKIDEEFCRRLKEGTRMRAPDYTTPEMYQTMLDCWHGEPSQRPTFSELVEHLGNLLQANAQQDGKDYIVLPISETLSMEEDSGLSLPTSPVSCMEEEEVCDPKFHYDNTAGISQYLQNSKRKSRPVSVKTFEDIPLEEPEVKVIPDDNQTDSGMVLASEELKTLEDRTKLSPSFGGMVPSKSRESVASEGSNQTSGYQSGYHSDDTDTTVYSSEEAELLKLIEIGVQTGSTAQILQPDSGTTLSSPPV
T3 sequence (P35968 20-764): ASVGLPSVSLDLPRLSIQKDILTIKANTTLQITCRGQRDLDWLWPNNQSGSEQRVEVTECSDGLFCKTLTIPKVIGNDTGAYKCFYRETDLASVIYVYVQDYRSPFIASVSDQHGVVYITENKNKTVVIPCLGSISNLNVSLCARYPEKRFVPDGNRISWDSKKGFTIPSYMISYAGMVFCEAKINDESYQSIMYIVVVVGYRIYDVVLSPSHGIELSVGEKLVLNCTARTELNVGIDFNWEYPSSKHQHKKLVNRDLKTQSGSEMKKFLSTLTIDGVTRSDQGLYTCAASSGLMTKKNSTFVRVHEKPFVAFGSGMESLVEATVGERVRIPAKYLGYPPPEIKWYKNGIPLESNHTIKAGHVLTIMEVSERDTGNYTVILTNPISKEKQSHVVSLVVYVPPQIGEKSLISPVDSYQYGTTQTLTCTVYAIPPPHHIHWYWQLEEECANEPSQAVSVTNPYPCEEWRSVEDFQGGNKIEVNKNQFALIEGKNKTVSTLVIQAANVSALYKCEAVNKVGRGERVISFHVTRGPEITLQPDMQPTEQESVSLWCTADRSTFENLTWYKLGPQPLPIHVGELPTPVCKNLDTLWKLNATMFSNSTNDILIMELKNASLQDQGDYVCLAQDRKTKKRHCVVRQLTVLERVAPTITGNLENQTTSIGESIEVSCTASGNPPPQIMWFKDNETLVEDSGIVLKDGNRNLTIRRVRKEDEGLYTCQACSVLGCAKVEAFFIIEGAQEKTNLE
T4 sequence (P35968 328-764): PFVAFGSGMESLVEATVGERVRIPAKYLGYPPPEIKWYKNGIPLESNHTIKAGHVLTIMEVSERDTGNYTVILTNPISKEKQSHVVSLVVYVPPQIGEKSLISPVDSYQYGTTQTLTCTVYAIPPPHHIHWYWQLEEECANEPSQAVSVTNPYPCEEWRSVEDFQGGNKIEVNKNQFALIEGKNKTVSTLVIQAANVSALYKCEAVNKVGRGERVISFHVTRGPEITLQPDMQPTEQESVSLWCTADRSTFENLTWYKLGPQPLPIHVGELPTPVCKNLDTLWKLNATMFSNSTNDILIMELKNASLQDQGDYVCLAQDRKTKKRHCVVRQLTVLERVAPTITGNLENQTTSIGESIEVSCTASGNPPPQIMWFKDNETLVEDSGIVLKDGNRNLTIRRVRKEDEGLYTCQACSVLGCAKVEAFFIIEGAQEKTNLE

| Binder | % Inhibition of VEGF165-mediated pTyr Activity, Average [1] | % Inhibition of VEGF165-mediated pTyr Activity, n = 1 [1] | % Inhibition of VEGF165-mediated pTyr Activity, n = 2 [1] | % Inhibition of VEGF165-mediated pTyr Activity, n = 3 [1] | % Inhibition of VEGF-E-mediated pTyr Activity [2] | HUVEC survival (n = 1) 1:10 dilution of supernatant (RLU) [3] | HUVEC survival (n = 2) 1:20 dilution of supernatant (RLU) [3] | FACS Geometric Mean [4] | OD (450 nm) [5] | KDR OD(450 nm) [6] | b-KDRIg4-7 OD(450 nm) [7] |
| --- | --- | --- | --- | --- | --- | --- | --- | --- | --- | --- | --- |
| anti-KDR monoclonal antibody 22B8 (antibody, V domains shown, Fully human mAb from XenoMouse (IgG2 or IgG4 strain); hybridoma supernatant) VH: QLQLQESGPGLVKPSETLSLTCTVSGGSISSRYYYWGWVRQPPGKGLEWIGTIYYSGHTYYNPSLKTRVTISVDTSKNQFSLKLISVTAADTAVYYCATQQLVLYYFDFWGQGTLVTVSS VL: EIVLTQSPGTLSLSPGERAALSCRASQSISSSYLAWYQQRPGQAPRLLIYGASSRATGIPDRFNGSGSGTDFTLTISRLEPEDFAVYYCQQFGSSITFGQGTRLEIK | 67% | 82% | 65% | 53% | 61% | 12900 RLU | 3260 RLU | 24 | 0.074 OD450 | 1.18 OD450 | 2.81 OD450 |
| anti-KDR monoclonal antibody 27D10 (antibody, V domains shown, Fully human mAb from XenoMouse (IgG2 or IgG4 strain); hybridoma supernatant) VH: QLQLQESGPGLVKPSETLSLTCTVSGGSISSRSDYWGWIRQPPGKGLEWIGTIYYSGSTFYNPSLKSRVTISVDTSKNQFSLKLSSVTAADTAVYYCARQQLVLYYFDYWGQGTLVTVSS VL: not shown | 58% | 62% | 48% | 63% | 63% | 20100 RLU | 9710 RLU | 24 | 0.166 OD450 | 3.24 OD450 | 2.03 OD450 |
| anti-KDR monoclonal antibody 30A1 (antibody, V domains shown, Fully human mAb from XenoMouse (IgG2 or IgG4 strain); hybridoma supernatant) VH: QLQLQESGPGLVKPSETLSLTCTVSGGSISSPNYYWGWIRQPPGKGLEWIGTIYYSGNTFYNPSLKSRVTISVDTSKNQFSLKLSSVTAADTAVYYCATQQLVLYYFDFWGQGTLVTVSS VL: EIVLTQSPGTLSLSPGKRAALSCRASQSISSSYLAWYQQKPGQAPRLLIYGASSRATGIPDRFNGSGSGTDFTLTISRLEPEDFAVYYCQQLGSSITFGQGTRLEIK | 65% | 86% | 59% | 52% | 50% | 14400 RLU | 9730 RLU | 25 | 0.107 OD450 | 0.786 OD450 | 1.21 OD450 |
| anti-KDR monoclonal antibody 29D4 (antibody, V domains shown, Fully human mAb from XenoMouse (IgG2 or IgG4 strain); hybridoma supernatant) VH: QLQLQESGPGLVKPSETLSLTCTVSGGSISSRSNYWGWIRQPPGKGLEWIGTIYYSGHTYYNPSLKSRVSISVDTSKNQFSLKLSSVTATDTALYYCARQQLVLYYFEYWGQGTLVTVSS VL: not shown | 72% | 85% | 67% | 63% | 67% | 12900 RLU | 5380 RLU | 26 | 0.1 OD450 | 1 OD450 | 2.61 OD450 |
| anti-KDR monoclonal antibody 32F4 (antibody, V domains shown, Fully human mAb from XenoMouse (IgG2 or IgG4 strain); hybridoma supernatant) VH: QLQLQESGPGLVKPSGTLSLSCTVSGGSISSRSDYWGWIRQPPGKGLEWIGTIYYSGNTFYNPSLKSRVTISVDTSKKQFSLKLSSVTAADTAVYYCARQQLVLYYFDYWGQGTLVTVSS VL: EIVLTQSPGTLSLSPGERATLSCRTSQSVSSSYLAWYQQKPGQAPRLLIYGASSRATGVPDRFSGSGSGTDFSLTISRLEPEDFAVYYCQQYGSSPPLTFGGGTKVEIK | 73% | 88% | 76% | 56% | 62% | 20100 RLU | 5030 RLU | 27 | 0.094 OD450 | 0.907 OD450 | 2.29 OD450 |
| anti-KDR monoclonal antibody 33C3 (antibody, V domains shown, Fully human mAb from XenoMouse (IgG2 or IgG4 strain); hybridoma supernatant) VH: QVQLVESGGGLVKPGESLRLSCAASGFTFSDYYMSWIRQAPGKGLEWVSYISHGGSTIYYADSVKGRFTISRDNAKNSLYLQMNSLRVEDTAVYFCARDDFWSGYYFNWFDPWGQGALVTVSS VL: DIQMTQYPLSLSASVGDRVTITCRASQSISSFLNWYHQKPGKAPKLLIYGTSSLQSGVPSRFSGSGSGTDFTLTISSLQPEDFATYYCQQTYSIPLTFGGGTNVEIK | 71% | 87% | 75% | 50% | 66% | 6540 RLU | 4710 RLU | 20 | 0.076 OD450 | 1.15 OD450 | 3.66 OD450 |
| anti-KDR monoclonal antibody 31E11 (antibody, V domains shown, Fully human mAb from XenoMouse (IgG2 or IgG4 strain); hybridoma supernatant) VH: QVQLVESGGGLVKPGGSLRLSCAASGFTFSDYYMSWIRQAPGKGLEWVSYISISGSTIYYADSVKGRFTISRDNAKNSLYLQMNSLRAEDTAVYYCARDDFWSGYYFNWFDPWGQGTLVTVSS VL: DIQMTQSPSSLSASVGDRVTITCRANQTISTFLNWYQQNPGKAPKLLIYAASSLQSGVPSRFSGSGSGTDFTLTISSLQPEDFATYYCQQTYIIPLTFGGGTKVEIK | 74% | 81% | 80% | 59% | 67% | 9140 RLU | 6980 RLU | 18 | 0.162 OD450 | 1.14 OD450 | 1.28 OD450 |
| anti-KDR monoclonal antibody 29H3 (antibody, V domains shown, Fully human mAb from XenoMouse (IgG2 or IgG4 strain); hybridoma supernatant) VH: QVQLVQSGAEVKKPGASVKVSCKASGYTFTSYDINWVRQATGQGLEWMGWMNPNSGKTGYAQKFQGRVTMTRNTSINTAYMELSSLRSEDTAVYYCARGGYSNLGWFDPWGQGTLVTVSS VL: DIQMTQSPSSVSASVGDRVTITCRASQGISSWLVWYHQKPGKAPKLLIYGASSLQSGVPSRFSGSGSGTDFTLTISSLQPEDFATYYCQQANNFPFTFGPGTKVDIK | 76% | 89% | 72% | 66% | 18% | 32700 RLU | 544 RLU | 27 | 0.096 OD450 | 0.83 OD450 | 0.071 OD450 |
